Laboratory results published in patent US20200339678A1 (RIGEL PHARMACEUTICALS, published 2020).
Positions count from the first letter of the chain named. Blank lines part the entries; values can stand above or below the binder they belong to.

What was measured:
[1] = biological target: T1, His-tagged recombinant Human TIGIT (human, UniProt Q495A1 22-141); experiment: ELISA, coated His-tagged human TIGIT
T1 construct: also called VSIG9; VSTM3; not shown: His tag
T1 sequence (looked up): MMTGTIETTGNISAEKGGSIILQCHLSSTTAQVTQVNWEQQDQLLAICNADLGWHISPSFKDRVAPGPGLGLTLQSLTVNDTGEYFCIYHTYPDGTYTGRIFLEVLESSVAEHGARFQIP
Procedure: (§1) Binding affinities for antigen binding to anti-TIGIT monoclonal antibodies were determined by ELISA. […] Antibodies to be tested were diluted to 1 μM in PBS buffer containing 1% BSA and diluted 3-fold in a 10-point curve. […] Detection of the secondary antibody was determined using streptavidin-HRP and TMB reagent. All assays were performed at room temperature. Curve-fitting software was used to determine the EC₅₀ for each antibody.

[2] = biological target: T2, His-tagged recombinant Mouse TIGIT (mouse, UniProt P86176 29-148, limits assumed); experiment: ELISA, coated His-tagged mouse TIGIT
T2 construct: not shown: His tag
T2 sequence (looked up): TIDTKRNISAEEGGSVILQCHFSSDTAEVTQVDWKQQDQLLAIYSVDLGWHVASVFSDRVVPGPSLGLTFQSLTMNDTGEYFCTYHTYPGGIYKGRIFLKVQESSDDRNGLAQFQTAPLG
Procedure: as §1

B1: Ab4 (Fab, V domains shown)
VH: EVQLLESGGGLVQPGGSLRLSCAASGFTFDSYGMNWVRQAPGKGLEWVASIKYSSGYKYYADSVKGRFTISRDNSKNTLYLQMNSLRAEDTAVYYCARGPYDVWMDYWGQGTLVTVSS
VL: not shown
notes: ARG set
EC50 [1]: 1.2 nM

B2: Ab54 (Fab, V domains shown)
VH: EVQLLESGGGLVQPGGSLRLSCAASGFTFSSYAMSWVRQAPGKGLEWVSSIKSNTGSTSYADSVKGRFTISRDNSKNTLYLQMNSLRAEDTAVYYCAREPYSYWLDYWGQGTLVTVSS
VL: not shown
notes: ARE set
EC50 [1]: 91.9 nM | EC50 [2]: 21.5 nM

B3: Ab48 (Fab, V domains shown)
VH: B1 VH with D30S, G33S, S50N, Y53S, S55G, G56S, Y57S, K58T, Y59S
VL: not shown
notes: ARG set; also called clone Ab48
EC50 [1]: 13.8 nM | EC50 [2]: 41.8 nM

B4: Ab28 (Fab, V domains shown)
VH: EVQLLESGGGLVQPGGSLRLSCAASGFTFSSYSMHWVRQAPGKGLEWVANINSNGGNTGYADSVKGRFTISRDNSKNTLYLQMNSLRAEDTAVYYCARVPYDVWMDYWGQGTLVTVSS
VL: not shown
notes: ARV set
EC50 [1]: 7.5 nM | EC50 [2]: 28.7 nM

B5: Ab10 (Fab, V domains shown)
VH: B1 VH with D30S, G33S, S50Y, Y53S, S54N, Y57T, Y59G, V103Y, M105L
VL: not shown
notes: ARG set
EC50 [1]: 101 nM | EC50 [2]: 40.7 nM

B6: Ab40 (Fab, V domains shown)
VH: B1 VH with D30S, S50G, Y57N
VL: not shown
notes: ARG set; also called clone Ab40
EC50 [1]: 0.3 nM

B7: Ab53 (Fab, V domains shown)
VH: B1 VH with D30S, G33S, N35H, Y53S, G56S, Y57N, M105L
VL: not shown
notes: ARG set; also called clone Ab53
EC50 [1]: 4.3 nM

B8: Ab60 (Fab, V domains shown)
VH: B4 VH with A49S, N50S, N52S, N54S, G55A, N57Y, G59S, M105L
VL: not shown
notes: ARV set
EC50 [1]: 79.8 nM

B9: Ab6 (Fab, V domains shown)
VH: EVQLLESGGGLVQPGGSLRLSCAASGFTFSDYSMSWVRQAPGKGLEWVARISSSSSYKSYADSVKGRFTISRDNSKNTLYLQMNSLRAEDTAVYYCAREPYSVWLDYWGQGTLVTVSS
VL: not shown
notes: ARE set
EC50 [1]: 25.4 nM

B10: Ab38 (Fab, V domains shown)
VH: B4 VH with S33T, H35S, N50G, N52W, N54D, G55S, T58K, D102S, M105I
VL: not shown
notes: ARV set
EC50 [1]: 45.5 nM

B11: Ab68 (Fab, V domains shown)
VH: B4 VH with N50A, N52K, S53G, G55T, N57S, G59Y, D102G
VL: not shown
notes: ARV set
EC50 [1]: 639 nM

B14: Ab15 (Fab, V domains shown)
VH: B4 VH with N50S, N52W, G55S, V103Y
VL: not shown
notes: ARV set
EC50 [1]: 5 nM | EC50 [2]: 8.4 nM

B16: Ab13 (Fab, V domains shown)
VH: B4 VH with S30D, A49S, N50S, N57Y, T58K, G59Y, V103Y, M105I
VL: not shown
notes: ARV set
EC50 [1]: 43.1 nM | EC50 [2]: 59.2 nM

B18: Ab22 (Fab, V domains shown)
VH: B4 VH with N50S, N52K, N54S, N57S, T58K, G59Y, V103Y
VL: not shown
notes: ARV set
EC50 [1]: 9.1 nM | EC50 [2]: 5.1 nM

B19: Ab12 (Fab, V domains shown)
VH: B2 VH with S49A, K52N, T55G, S57Y, T58K, S102G, Y103T
VL: not shown
notes: ARE set
EC50 [1]: 27.7 nM

B20: Ab78 (Fab, V domains shown)
VH: B4 VH with N50S, N52S, S53G, N54S, G55T, G56S, N57S, T58S, G59S
VL: not shown
notes: ARV set
EC50 [1]: 119 nM

B39: Ab2 (Fab, V domains shown)
VH: EVQLLESGGGLVQPGGSLRLSCAASGFTFSSYGMNWVRQAPGKGLEWVAGINYSSGNKYYADSVKGRFTISRDNSKNTLYLQMNSLRAEDTAVYYCARGPYASTWLDYWGQGTLVTVSS
VL: not shown
notes: ARG set
EC50 [1]: 15.7 nM

Continued, values first:

EC50 [1]: 32.8 nM | EC50 [2]: 234 nM
B12: Ab155 (Fab, V domains shown)
VH: B9 VH with D31S, S35N, R50A, S53G, S54D, S55T, S56G, Y57T, K58S, S59G
VL: not shown
notes: ARE set

EC50 [1]: 3.4 nM | EC50 [2]: 5.7 nM
B13: Ab143 (Fab, V domains shown)
VH: B4 VH with N50A, G55A, N57S, T58S, G59S, D102G
VL: not shown
notes: ARV set; also called clone Ab143

EC50 [1]: 4.6 nM
B15: Ab193 (Fab, V domains shown)
VH: B2 VH with S50A, N54D, G56S, S57T, T58I, S59Y, Y103T
VL: not shown
notes: ARE set

EC50 [1]: 289 nM
B17: Ab97 (Fab, V domains shown)
VH: B4 VH with N50A, N52S, G55T, N57S, T58I, M105I
VL: not shown
notes: ARV set

EC50 [2]: 164 nM
B21: Ab156 (Fab, V domains shown)
VH: B2 VH with S50Y, K52S, S53G, T55A, S57Y, T58I, E99V, S102G, Y103V, L105M
VL: DIQMTQSPSSLSASVGDRVTITCRASQSISSYAAWYQQKPGKAPKLLIYGNTSRQSGVPSRFSGSGSGTDFTLTISSLQPEDFATYYCQQYSNSPLTFGGGTKVEIK
notes: ARV set

EC50 [2]: 110 nM
B22: Ab183 (Fab, V domains shown)
VH: B2 VH with S50Y, K52N, T58I, S59G, S102G, Y103V, L105M
VL: not shown
notes: ARE set

EC50 [2]: 58.6 nM
B23: Ab138 (Fab, V domains shown)
VH: B2 VH with S49A, N54S, S57T, S59G, Y103V, L105I
VL: not shown
notes: ARE set

EC50 [2]: 20.4 nM
B24: Ab162 (Fab, V domains shown)
VH: B9 VH with D31S, S33A, R50A, S52K, S55A, Y57T, K58I, S59Y, L105M
VL: not shown
notes: ARE set

EC50 [2]: 122 nM
B25: Ab154 (Fab, V domains shown)
VH: B4 VH with N50S, N52K, G55T, N57T, D102G, V103Y
VL: not shown
notes: ARV set

EC50 [2]: 81 nM
B26: Ab199 (Fab, V domains shown)
VH: B4 VH with N50S, N52S, N54S, G55A, G56S, N57T, T58S, D102G, M105I
VL: not shown
notes: ARV set

EC50 [1]: 6.2 nM
B27: Ab187 (Fab, V domains shown)
VH: B9 VH with D31S, R50S, S52K, S54D, S55A, Y57T, K58T, S59G
VL: not shown
notes: ARE set

EC50 [2]: 84.9 nM
B28: Ab137 (Fab, V domains shown)
VH: B2 VH with A33S, S35H, S49A, S53G, T58I, E99V, S102D, L105I
VL: not shown
notes: ARV set

EC50 [2]: 173 nM
B29: Ab140 (Fab, V domains shown)
VH: B2 VH with S49A, K52N, T58I, S59G
VL: not shown
notes: ARE set

EC50 [2]: 429 nM
B30: Ab186 (Fab, V domains shown)
VH: B4 VH with N50S, N52S, G55A, N57Y, T58S, G59S, M105I
VL: not shown
notes: ARV set

EC50 [1]: 138 nM
B31: Ab170 (Fab, V domains shown)
VH: EVQLLESGGGLVQPGGSLRLSCAASGFTFNSYAMHWVRQAPGKGLEWVAYISGNAGSIYYADSVKGRFTISRDNSKNTLYLQMNSLRAEDTAVYYCARVPYSVWLDYWGQGTLVTVSS
VL: not shown
notes: ARV set

EC50 [2]: 70.6 nM
B32: Ab194 (Fab, V domains shown)
VH: B4 VH with H35S, A49S, N50A, S53G, G55A, N57S, T58I, V99E, D102G
VL: not shown
notes: ARE set

EC50 [2]: 253 nM
B33: Ab168 (Fab, V domains shown)
VH: B2 VH with N54D, G56S, S59Y
VL: not shown
notes: ARE set

EC50 [2]: 7.8 nM
B34: Ab146 (Fab, V domains shown)
VH: B31 VH with N30S, Y50S, I58S, Y59S, S102G, L105I
VL: not shown
notes: ARV set

EC50 [2]: 64.9 nM
B35: Ab173 (Fab, V domains shown)
VH: B2 VH with K52S, S57T, T58I, E99V, S102G, L105M
VL: not shown
notes: ARV set

EC50 [1]: 122 nM
B36: Ab93 (Fab, V domains shown)
VH: B2 VH with S49A, K52S, N54S, S57T, T58I, E99V, Y103V, L105M
VL: not shown
notes: ARV set

EC50 [1]: 27.1 nM
B37: Ab152 (Fab, V domains shown)
VH: B4 VH with A49T, N50S, N52S, G55A, N57Y, T58I, G59S
VL: not shown
notes: ARV set

EC50 [2]: 40.3 nM
B38: Ab188 (Fab, V domains shown)
VH: B4 VH with N50S, N52K, G55A, N57T, T58S, G59S, M105I
VL: not shown
notes: ARV set

EC50 [2]: 0.7 nM
B40: Ab150 (Fab, V domains shown)
VH: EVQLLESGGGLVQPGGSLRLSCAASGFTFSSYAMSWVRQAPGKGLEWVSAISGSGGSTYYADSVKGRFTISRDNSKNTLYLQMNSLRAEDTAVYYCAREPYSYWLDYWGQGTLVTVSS
VL: B21 VL with A33V, G50V, Q55A, Y91W, S92Y, N93E, S94F, P95N
notes: ARE set

EC50 [2]: 156 nM
B41: Ab158 (Fab, V domains shown)
VH: B2 VH with A33S, S49A, S50A, S53G, N54S, T55A, S57T, T58S, S59G, S102G
VL: B21 VL with A33V, R54L, Y91G, S92D, N93E, S94N
notes: ARE set
